This is an account of results in publication PMC1919486.

This data set deals with T1, hSMUG1 WT (Homo sapiens, UniProt Q53HV7 1-270).
T1 sequence: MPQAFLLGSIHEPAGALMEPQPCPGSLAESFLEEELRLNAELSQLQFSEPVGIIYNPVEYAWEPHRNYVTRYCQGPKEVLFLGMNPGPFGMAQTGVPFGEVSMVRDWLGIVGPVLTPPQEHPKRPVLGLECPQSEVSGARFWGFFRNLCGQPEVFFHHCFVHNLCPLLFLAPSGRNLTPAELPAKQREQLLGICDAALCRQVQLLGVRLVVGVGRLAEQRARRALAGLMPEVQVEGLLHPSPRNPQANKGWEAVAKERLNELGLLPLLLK
As to the kind of experiment: EMSA. For orientation: In EMSA bound probe runs differently from free probe, usually more slowly.

B1: T:A (T141A) (dsDNA)
DNA 1: CATAAAGTGTAAAGCCTGG
DNA 2: CCAGGCTTTACACTTTATG
For B1, the binding result was “no binding”.
